Measurements reported in the supplement of paper PMC9112550, “Optimization of the antimicrobial peptide Bac7 by deep mutational scanning” (BMC Biology, 2022).

Test system: Escherichia coli TOP10
Assay: shrunken log2 fold change of peptide-encoding DNA abundance (4.5 h post-induction vs induction); higher = less antimicrobial activity (less host growth inhibition)
Details: time post-induction: 4.5 h; library: site-saturation at positions 5, 18, 19, 20
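Also: peptides expressed intracellularly from a pBAD plasmid library in pooled LB shake-flask culture, induced with 0.3% L-arabinose, DNA abundance read by NGS, three biological replicates, DESeq2 with apeglm shrinkage.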

Sequence	shrunken log2 fold change
RRIRIRPPRLPRPRPRPFQQPRP	-0.0967
RRIRFRPPRLPRPRPRPETTPRP	0.533
RRIRPRPPRLPRPRPRPFMLPRP	-0.378
RRIRKRPPRLPRPRPRPMAIPRP	0.116
RRIRRRPPRLPRPRPRPEQNPRP	0.849
RRIRLRPPRLPRPRPRPWSFPRP	0.018
RRIRYRPPRLPRPRPRPSCVPRP	-0.497
RRIRRRPPRLPRPRPRPGALPRP	0.502
RRIRQRPPRLPRPRPRPMSVPRP	0.0173
RRIRLRPPRLPRPRPRPANIPRP	-0.501
RRIRKRPPRLPRPRPRPHDLPRP	0.00698
RRIRGRPPRLPRPRPRPHKMPRP	0.0936
RRIRMRPPRLPRPRPRPDWCPRP	0.0698
RRIRIRPPRLPRPRPRPWFVPRP	-0.578
RRIRHRPPRLPRPRPRPIPIPRP	-0.115
RRIRERPPRLPRPRPRPWISPRP	0.0119
RRIRQRPPRLPRPRPRPGGFPRP	0.0441
RRIRHRPPRLPRPRPRPDLMPRP	-0.175
RRIRERPPRLPRPRPRPVPEPRP	-0.0948
RRIRCRPPRLPRPRPRPDMCPRP	-0.13
RRIRKRPPRLPRPRPRPWEIPRP	-0.00947
RRIRKRPPRLPRPRPRPESKPRP	0.727
RRIRLRPPRLPRPRPRPRTPPRP	0.376
RRIRKRPPRLPRPRPRPFMTPRP	0.168
RRIRYRPPRLPRPRPRPFLGPRP	-0.0439

Sequence	shrunken log2 fold change
RRIRHRPPRLPRPRPRPSYYPRP	-1.56
RRIRTRPPRLPRPRPRPESEPRP	-0.0433
RRIRWRPPRLPRPRPRPWDHPRP	-0.0185
RRIRTRPPRLPRPRPRPYFDPRP	-0.738
RRIRRRPPRLPRPRPRPAINPRP	-0.0133
RRIRQRPPRLPRPRPRPTGRPRP	0.146
RRIRFRPPRLPRPRPRPSQDPRP	0.0128
RRIRVRPPRLPRPRPRPSFPPRP	-0.627
RRIRQRPPRLPRPRPRPVTYPRP	-0.219
RRIRIRPPRLPRPRPRPMGYPRP	-0.148
RRIRRRPPRLPRPRPRPGHTPRP	0.274
RRIRPRPPRLPRPRPRPWVHPRP	-0.0708
RRIRIRPPRLPRPRPRPFHYPRP	0.0334
RRIRGRPPRLPRPRPRPILPPRP	0.0676
RRIRWRPPRLPRPRPRPAGNPRP	0.396
RRIRHRPPRLPRPRPRPWCLPRP	-1.67
RRIRVRPPRLPRPRPRPFHRPRP	-0.0437
RRIRPRPPRLPRPRPRPFDYPRP	-0.391
RRIRARPPRLPRPRPRPHITPRP	-0.294
RRIRKRPPRLPRPRPRPYVIPRP	-0.112
RRIRGRPPRLPRPRPRPYHCPRP	-0.0643
RRIRWRPPRLPRPRPRPSLCPRP	0.384
RRIRARPPRLPRPRPRPTIKPRP	0.0966
RRIRMRPPRLPRPRPRPRYDPRP	0.185
RRIRFRPPRLPRPRPRPQLNPRP	-0.53

Sequence	shrunken log2 fold change
RRIRRRPPRLPRPRPRPDLCPRP	0.00591
RRIRNRPPRLPRPRPRPKVAPRP	0.0368
RRIRLRPPRLPRPRPRPDWYPRP	-0.464
RRIRRRPPRLPRPRPRPGELPRP	0.12
RRIRCRPPRLPRPRPRPNEWPRP	0.0357
RRIRARPPRLPRPRPRPSVAPRP	0.485
RRIRVRPPRLPRPRPRPQDCPRP	-0.172
RRIRFRPPRLPRPRPRPAMPPRP	0.0356
RRIRFRPPRLPRPRPRPQHLPRP	-1.22
RRIRWRPPRLPRPRPRPWFTPRP	-0.0224
RRIRARPPRLPRPRPRPYHAPRP	-0.0253
RRIRYRPPRLPRPRPRPHLEPRP	-0.021
RRIRCRPPRLPRPRPRPVERPRP	0.0133
RRIRERPPRLPRPRPRPHIQPRP	-0.705
RRIRARPPRLPRPRPRPVLPPRP	0.286
RRIRCRPPRLPRPRPRPCIEPRP	-0.453
RRIRRRPPRLPRPRPRPYYEPRP	-0.572
RRIRQRPPRLPRPRPRPPAYPRP	0.106
RRIRNRPPRLPRPRPRPKAAPRP	3.06
RRIRNRPPRLPRPRPRPPKVPRP	0.28
RRIRPRPPRLPRPRPRPELPPRP	0.175
RRIRVRPPRLPRPRPRPQRFPRP	-0.163
RRIRGRPPRLPRPRPRPHYWPRP	0.12
RRIRRRPPRLPRPRPRPPEGPRP	0.657
RRIRVRPPRLPRPRPRPSWWPRP	0.0465

Sequence	shrunken log2 fold change
RRIRHRPPRLPRPRPRPSMSPRP	-0.0246
RRIRHRPPRLPRPRPRPVSGPRP	-0.188
RRIRARPPRLPRPRPRPEGWPRP	1.38
RRIRDRPPRLPRPRPRPWKRPRP	-0.0239
RRIRARPPRLPRPRPRPGCLPRP	0.419
RRIRRRPPRLPRPRPRPHHRPRP	0.0911
RRIRERPPRLPRPRPRPAWQPRP	-0.109
RRIRCRPPRLPRPRPRPYCMPRP	-1.09
RRIRIRPPRLPRPRPRPSFWPRP	0.059
RRIRHRPPRLPRPRPRPNLRPRP	0.00562
RRIRERPPRLPRPRPRPPMSPRP	-0.373
RRIRIRPPRLPRPRPRPQGTPRP	-0.272
RRIRFRPPRLPRPRPRPPKMPRP	0.436
RRIRERPPRLPRPRPRPDVCPRP	-0.239
RRIRDRPPRLPRPRPRPSLSPRP	-0.0503
RRIRNRPPRLPRPRPRPSIAPRP	-0.0838
RRIRRRPPRLPRPRPRPTNWPRP	0.37
RRIRHRPPRLPRPRPRPYLPPRP	-0.618
RRIRCRPPRLPRPRPRPDFQPRP	-0.294
RRIRQRPPRLPRPRPRPHTKPRP	-0.213
RRIRHRPPRLPRPRPRPHKMPRP	-0.266
RRIRVRPPRLPRPRPRPIQSPRP	-0.177
RRIRHRPPRLPRPRPRPYFRPRP	-0.296
RRIRQRPPRLPRPRPRPAKDPRP	0.0171
RRIRHRPPRLPRPRPRPIPQPRP	-0.126

Sequence	shrunken log2 fold change
RRIRVRPPRLPRPRPRPIGFPRP	0.187
RRIRARPPRLPRPRPRPVKIPRP	0.0527
RRIRLRPPRLPRPRPRPKDSPRP	-0.139
RRIRDRPPRLPRPRPRPGNLPRP	-0.0298
RRIRFRPPRLPRPRPRPDIHPRP	-0.268
RRIRTRPPRLPRPRPRPLPYPRP	-0.0545
RRIRCRPPRLPRPRPRPFDCPRP	-0.95
RRIRTRPPRLPRPRPRPTCSPRP	0.00373
RRIRMRPPRLPRPRPRPWLMPRP	0.0599
RRIRDRPPRLPRPRPRPLYAPRP	-0.122
RRIRKRPPRLPRPRPRPCQCPRP	-0.0903
RRIRTRPPRLPRPRPRPHDWPRP	0.213
RRIRRRPPRLPRPRPRPCFLPRP	-0.269
RRIRKRPPRLPRPRPRPDCGPRP	0.016
RRIRRRPPRLPRPRPRPANFPRP	-0.0416
RRIRFRPPRLPRPRPRPCPWPRP	-0.0658
RRIRARPPRLPRPRPRPFKMPRP	-0.253
RRIRCRPPRLPRPRPRPIKDPRP	-0.533
RRIRVRPPRLPRPRPRPEYWPRP	-0.161
RRIRRRPPRLPRPRPRPGRCPRP	0.27
RRIRSRPPRLPRPRPRPQCHPRP	-0.113
RRIRKRPPRLPRPRPRPVKSPRP	0.155
RRIRLRPPRLPRPRPRPMHGPRP	0.0554
RRIRNRPPRLPRPRPRPFCSPRP	-0.0765
RRIRIRPPRLPRPRPRPRIQPRP	-0.275

Sequence	shrunken log2 fold change
RRIRERPPRLPRPRPRPGWHPRP	0.027
RRIRGRPPRLPRPRPRPSTPPRP	0.468
RRIRVRPPRLPRPRPRPEDEPRP	0.138
RRIRWRPPRLPRPRPRPVLCPRP	0.341
RRIRGRPPRLPRPRPRPFTTPRP	0.0423
RRIRLRPPRLPRPRPRPDDQPRP	0.101
RRIRHRPPRLPRPRPRPEEPPRP	0.0179
RRIRMRPPRLPRPRPRPNKLPRP	-0.145
RRIRTRPPRLPRPRPRPHNVPRP	-0.141
RRIRVRPPRLPRPRPRPPYRPRP	-0.0303
RRIRTRPPRLPRPRPRPDQQPRP	-0.0173
RRIRQRPPRLPRPRPRPLMAPRP	-0.0462
RRIRMRPPRLPRPRPRPHSQPRP	-0.00628
RRIRLRPPRLPRPRPRPVVPPRP	0.139
RRIRVRPPRLPRPRPRPDSVPRP	-0.28
RRIRERPPRLPRPRPRPWTAPRP	-0.478
RRIRERPPRLPRPRPRPEDTPRP	-0.343
RRIRKRPPRLPRPRPRPWHSPRP	0.0422
RRIRDRPPRLPRPRPRPFYGPRP	-0.108
RRIRNRPPRLPRPRPRPDFFPRP	-0.138
RRIRMRPPRLPRPRPRPCSYPRP	-0.0368
RRIRYRPPRLPRPRPRPEFLPRP	-0.252
RRIRFRPPRLPRPRPRPHDHPRP	-0.508
RRIRPRPPRLPRPRPRPNYTPRP	-0.679
RRIRLRPPRLPRPRPRPYKNPRP	-0.631
